According to patent publication EP2336188A1 (Sanofi-Aventis, dated 2011):
Where “and” joins values, the source holds several entries; their conditions need not be identical. Equal entries are not always repeated.

T1: human GPVI on platelets (human, UniProt Q9HCN6 21-339)
T1 sequence (looked up): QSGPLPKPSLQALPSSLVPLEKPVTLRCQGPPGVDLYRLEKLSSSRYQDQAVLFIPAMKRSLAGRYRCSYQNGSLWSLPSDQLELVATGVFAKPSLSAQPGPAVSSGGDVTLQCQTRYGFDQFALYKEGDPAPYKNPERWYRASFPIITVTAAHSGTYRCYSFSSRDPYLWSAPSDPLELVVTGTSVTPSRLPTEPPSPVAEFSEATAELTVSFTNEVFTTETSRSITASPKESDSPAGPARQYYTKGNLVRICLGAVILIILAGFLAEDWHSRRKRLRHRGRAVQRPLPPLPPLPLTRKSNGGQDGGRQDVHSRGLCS


Biological target: T1, human GPVI on platelets
Experiment: cell-based or functional assay

Binder | IC50 for inhibition of collagen induced platelet aggregation (human platelet rich plasma)
humanized anti-GPVI Fab VL1 with VH2 (Fab, V domains shown) VH: QVQLQESGPGLVAPSQSLSITCTVSGFSLTGYGVNWVRQPPSRGLEWLGMIWGDGSTDYQSTLKSRLSISKDNSKSQVFLKMNSLTTDDTARYYCARDLPMDYWGQGTSVTVSS VL: DIQMTQSPSSLSASVGGRVTITCKASQDINKYIAWYQHKPGKGPSLLIHYTSTLQPGVPSRFSGSGSGRDYSFSISNLQPEDIATYYCLQYANLLTFGGGTKLEIKR | 2.3 µg/mL and 2 µg/mL and 1.1 µg/mL
humanized anti-GPVI Fab VL1 with VH4 (Fab, V domains shown) VH: QVQLQESGPGLVAPSQSLSITCTVSGFSLTYYGVNWVRQPPSRGLEWLGMIWGDGSTDYQSTLKSRLSISKDNSKSQVFLKMNSLTTDDTARYYCARDLPMDYWGQGTSVTVSS VL: DIQMTQSPSSLSASVGGRVTITCKASQDINKYIAWYQHKPGKGPSLLIHYTSTLQPGVPSRFSGSGSGRDYSFSISNLQPEDIATYYCLQYANLLTFGGGTKLEIKR | 1.6 µg/mL and 1.8 µg/mL and 1.2 µg/mL
humanized anti-GPVI Fab VL1 with VH3 (Fab, V domains shown) VH: EVQLLESGPGLVAPSGSLSITCTVSGFSLTGYGVNWVRQPPGKGLEWLGMIWGDGSTDYQSTLKSRLSISKDNSKSQVFLKMNSLRTDDTARYYCARDLPMDYWGLGTSVTVSS VL: DIQMTQSPSSLSASVGGRVTITCKASQDINKYIAWYQHKPGKGPSLLIHYTSTLQPGVPSRFSGSGSGRDYSFSISNLQPEDIATYYCLQYANLLTFGGGTKLEIKR | 1.5 µg/mL and 1.7 µg/mL
humanized anti-GPVI Fab VL1 with VH5 (Fab, V domains shown) VH: QVQLQESGPGLVAPSQSLSITCTVSGFSLTGYGVNWVRQPPSRGLEWLGMIWGDGSTDYQSTLKSRLSISKDNSKSQVFLKMNSLTTDDTARYYCARDLPMDEWGQGTSVTVSS VL: DIQMTQSPSSLSASVGGRVTITCKASQDINKYIAWYQHKPGKGPSLLIHYTSTLQPGVPSRFSGSGSGRDYSFSISNLQPEDIATYYCLQYANLLTFGGGTKLEIKR | 1.9 µg/mL and 2.3 µg/mL and 1.2 µg/mL
humanized anti-GPVI Fab VL1 with VH1 (Fab, V domains shown) VH: QVQLQESGPGLVAPSQSLSITCTVSGFSLTGYGVNWVRQPPSRGLEWLGMIWGDGSTDYQSTLKSRLSISKDTSKSQVFLKMNSLTTDDTARYYCARDLPMDYWGQGTSVTVSS VL: DIQMTQSPSSLSASVGGRVTITCKASQDINKYIAWYQHKPGKGPSLLIHYTSTLQPGVPSRFSGSGSGRDYSFSISNLQPEDIATYYCLQYANLLTFGGGTKLEIKR | 1.5 µg/mL and 2.3 µg/mL
humanized anti-GPVI Fab VL3 with VH2 (Fab, V domains shown) VH: QVQLQESGPGLVAPSQSLSITCTVSGFSLTGYGVNWVRQPPSRGLEWLGMIWGDGSTDYQSTLKSRLSISKDNSKSQVFLKMNSLTTDDTARYYCARDLPMDYWGQGTSVTVSS VL: DIQMTQSPSSLSASVGGRVTITCKASQDINKYIAWYQHKPGKGPSLLIHYTSTLQPGVPSRFSGSGSGRDYSFSISNLQPEDIATYYCLQYALLLTFGGGTKLEIKR | 1.9 µg/mL and 0.9 µg/mL and 2.1 µg/mL
humanized anti-GPVI Fab VL3 with VH4 (Fab, V domains shown) VH: QVQLQESGPGLVAPSQSLSITCTVSGFSLTYYGVNWVRQPPSRGLEWLGMIWGDGSTDYQSTLKSRLSISKDNSKSQVFLKMNSLTTDDTARYYCARDLPMDYWGQGTSVTVSS VL: DIQMTQSPSSLSASVGGRVTITCKASQDINKYIAWYQHKPGKGPSLLIHYTSTLQPGVPSRFSGSGSGRDYSFSISNLQPEDIATYYCLQYALLLTFGGGTKLEIKR | 1 µg/mL and 2.3 µg/mL and 2 µg/mL
humanized anti-GPVI Fab VL2 with VH2 (Fab, V domains shown) VH: QVQLQESGPGLVAPSQSLSITCTVSGFSLTGYGVNWVRQPPSRGLEWLGMIWGDGSTDYQSTLKSRLSISKDNSKSQVFLKMNSLTTDDTARYYCARDLPMDYWGQGTSVTVSS VL: DIQMTQSPSSLSASVGGRVTITCKASQDINKYIAWYQHKPGKGPSLLIHYTSTLQPGVPSRFSGSGSGRDYSFSISNLQPEDIATYYCLQYAHLLTFGGGTKLEIKR | 1.4 µg/mL and 2.4 µg/mL and 2.3 µg/mL
